B1: library; numbered along this chain (parent)
chain: MAAAAAAAAEQQSSNGPVKKSMREKAVERRSVNKEHNSNFKAGYIPIDEDRLHKTGLRGRKGNLAICVIILLFILAVINLIITLVIWAVIRIGPNGCDSMEFHESGLLRFKQVSDMGVIHPLYKSTVGGRRNENLVITGNNQPIVFQQGTTKLSVENNKTSITSDIGMQFFDPRTQNILFSTDYETHEFHLPSGVKSLNVQKASTERITSNATSDLNIKVDGRAIVRGNEGVFIMGKTIEFHMGGNMELKAENSIILNGSVMVSTTRLPSSSSGDQLGSGDWVRYKLCMCADGTLFKVQVTSQNMGCQISDNPCGNTH

Variants of: B1
Assay: SGCB cell-surface expression functional score (HA stain, bin4 vs bin1, normalised to synonymous) (log10 ratio); higher = more cell-surface SGCB (functional)
How it was run: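 Codon-saturation libraries of HA-tagged, YFP-fused human beta-sarcoglycan were lentivirally transduced at MOI <0.1 into HEK293 cells stably expressing alpha-, gamma- and delta-sarcoglycan. YFP-positive cells were sorted after 72 hours, grown 5–7 days, stained on ice with Alexa Fluor 647 anti-HA, fixed, sorted into four 5% intensity bins and amplicon-sequenced. The functional score is the log ratio of highest-bin to lowest-bin variant frequency, taken as the median over codons and duplicate transductions. Synonymous variants were scaled per section to mean 0, SD 0.5.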

SGCB cell-surface expression functional score (log10): each site, then its substitutions
I178: A -1.66; E -2.31; P 0.29; T -0.41; N -0.4; H -0.39; G -0.44; Y -1.19; Q -0.75; R -0.26; C -0.6; D -0.82; F -0.92; V 0.68; S -1.13; W -1.15; K -0.57; M -0.88; L 0.3
F171: L 0.15; A -0.81; N -0.08; Q 0.8; K 0.12; M 1.04; V -0.07; C -1.66; R 0.04; P -0.43; I 0.86; T 0.72; E -1.22; Y 0.03; S -0.28
M168: R -0.79; H -1.85; E -0.66; A -1.55; D -1.62; G -1.9; I -0.24; F -0.59; T -1.24; P -0.24; N -2.1; W -2.06; L 0.01; S -1.21; C -0.84; Y -1.79; Q -1.74; V -0.11; K -0.76
I162: Q -0.98; T -1.07; R -1.34; S -1.09; W 0.05; Y -1.43; V -0.49; P -1.25
Q176: D 0.07; R 0.16; S -0.24; F -0.66; P -0.31; Y -0.78; L -0.17; W -0.21; N 0.38; A 0.1; V -0.31; I -0.61; E 0.27; T -0.34; G 0.46; H -0.38; M -0.21; C 1.06; K -0.32
D165: P 0.58; A 0.17; L -0.58; H 0.61; I 0.19; F 0.07; S -0.01; V 0.5; Q -1.09; N -0.35; Y -0.38; R 0.2; G -0.11; K -0.75; E 0.02; T 0.73
I166: P -1.11; Y 0.18; E 0.76; F 0.57; R -0.29; D -1.32; N -0.78; G -0.41; C 0.54; V 0.13; W -2.63; M -0.16; S -0.76; Q -0.21; H -0.1; L -0.38; A -0.49; K -0.2; T 0.36
R174: S -0.45; A 0.02; Q -1.07; E -0.22; V -0.32; D -0.81; G -0.63; H -0.58; M 0.09; W -0.75; Y -0.17; F -0.97; K 0.08; N -1.48; T 0.3; C -0.43; L 0.05; P -0.77; I -0.15
Q169: R 0.09; D -0.37; A -1.13; I 0.44; N -1.92; F -1.89; G -1.16; T -0.04; Y -0.36; S 0.27; K 0; E 0.46; W -1.48; P -1.46; M -1.88; V -0.23; C -1.24; L -0.69; H -0.86
T175: A 0.26; P -1.3; S -0.04; V -0.16; W 1.12; E -0.42; L 0.08; H 0.32; Q 1.26; F 0.17; D -0.47; Y 0.07; C -0.43; I -0.13; N -0.16; R 0.24; K -0.54; G 0.14; M -0.5
F170: E -2.21; V 0.47; R -1.14; P -1.16; K -0.63; G -0.91; Y -0.86; D -1.87; T -0.01; A -0.27; L 0.11; S -0.47; N -1.47; I 0.36; C -0.28; Q -0.12
N177: V 0.4; S 0.02; K -0.45; L 0.29; E 0.19; M -0.24; I 0.12; Y 0.11; T 0.39; Q 1.3; R 0.42; D 0.12; H 0.09; A 0.49; P -1.5; W -0.44; G 0.05; C 0.09; F -0.18
S164: Y -1.05; N -0.99; I -1.26; E -0.83; L -1.91; G -0.13; V -0.34; F -1.08; C -0.79; Q -0.96; P -1.87; H -1.56; T -0.69; A -0.39; K -0.97; W -2.58; M -2.05; D 0.11; R -0.91
T163: P -1.3; K -0.3; H -0.2; G -1.5; R -0.05; E -0.38; M -1.06; Y 0.58; V 0.25; I 0.32; S -1.01; Q 0.21; L -0.56; C -0.72; F -0.27; A -0.32; D -1.08
F180: Q -1.66; T -1.29; H -2.25; G -1.85; M -1.82; R -1.76; K -1.78; L -0.42; E -1.03; I -1.72; A -2.1; D -1.86; C -1.87; S -1.41; N -2.28; P -1.31
G167: P -1.01; C -2.06; V -0.99; Y -1.42; Q -0.39; L -0.9; F -1.3; H -0.66; N -1.11; S -1.64; A -0.48; T -1.32; W -1.16; E -1.93; D -1.19; M -1.61; I -2.1; R -1.14; K -0.34
L179: P -0.55; T -1.12; Y -0.54; G -0.53; K 0.28; W 1.37; N -1.22; A 0.06; F 0.08; E -1.07; S -1.32; V -0.27; M -1.01; D -1.87; Q -0.03; R 0.67; I -0.73; H -1.99
D172: C 0.95; Q -0.19; Y -0.12; T 0.25; V 0.26; M 0.46; L 0.77; F -0.3; K -0.36; A 0.03; H 0.44; S 0.68; I -1.04; E 0.42; G 0.2; N -0.02; P -1.12; W -0.88; R -0.58
P173: A -0.38; W -1.02; M 0; K -0.93; Y -0.68; I -0.68; D -0.84; R -0.47; T -0.17; F -0.34; E 0; N -0.77; G -0.17; C -0.22; L -0.21; V 0.67; S 0.5; Q 0.62; H 0.19
